Laboratory results taken from paper PMC10897393, “Cellular reprogramming in vivo initiated by SOX4 pioneer factor activity”.

Tests used:
FLAG-SOX4 [1] = target: T1, FLAG-SOX4 (Mus musculus, UniProt Q06831 1-440); assay: competition; SOX4 displaces pre-bound HNF4A (30 nM); value is the effective SOX4 concentration; EMSA: 10 mM Tris-HCl pH 7.5, 1 mM MgCl2, 1 mM DTT, 50 mM KCl, 0.3 mg/ml BSA, 5% glycerol, RT 30 min; 5% native PAGE in 0.5x TBE; details: protein: recombinant; label: Cy5 5'-end; blunt
MYC-FLAG-HNF4A = target: T2, MYC-FLAG-HNF4A (Mus musculus, UniProt P49698 1-474); assay: EMSA; EMSA: 10 mM Tris-HCl pH 7.5, 1 mM MgCl2, 1 mM DTT, 50 mM KCl, 0.3 mg/ml BSA, 5% glycerol, RT 30 min; 5% native PAGE in 0.5x TBE; details: protein: commercial; tags: MYC-FLAG; chain copies: 2; label: Cy5 5'-end; blunt
T2 sequence: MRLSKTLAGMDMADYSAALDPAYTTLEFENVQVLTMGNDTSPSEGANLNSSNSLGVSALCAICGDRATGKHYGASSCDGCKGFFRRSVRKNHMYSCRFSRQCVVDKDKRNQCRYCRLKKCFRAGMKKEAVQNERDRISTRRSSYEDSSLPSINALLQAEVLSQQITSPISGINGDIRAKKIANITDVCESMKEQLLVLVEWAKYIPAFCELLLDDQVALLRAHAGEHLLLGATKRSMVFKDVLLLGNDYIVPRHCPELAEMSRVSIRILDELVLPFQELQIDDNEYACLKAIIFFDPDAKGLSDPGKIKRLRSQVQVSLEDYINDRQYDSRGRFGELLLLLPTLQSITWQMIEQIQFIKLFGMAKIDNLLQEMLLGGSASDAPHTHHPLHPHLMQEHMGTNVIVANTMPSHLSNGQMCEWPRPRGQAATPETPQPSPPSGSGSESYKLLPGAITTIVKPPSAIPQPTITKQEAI

FLAG-SOX4 [2] = target: T1, FLAG-SOX4; assay: EMSA; more robust binding than HNF4A; EMSA: 10 mM Tris-HCl pH 7.5, 1 mM MgCl2, 1 mM DTT, 50 mM KCl, 0.3 mg/ml BSA, 5% glycerol, RT 30 min; 5% native PAGE in 0.5x TBE; details: protein: recombinant; label: Cy5 5'-end; blunt

Measured: binding result

T1 sequence (Q06831 whole entry): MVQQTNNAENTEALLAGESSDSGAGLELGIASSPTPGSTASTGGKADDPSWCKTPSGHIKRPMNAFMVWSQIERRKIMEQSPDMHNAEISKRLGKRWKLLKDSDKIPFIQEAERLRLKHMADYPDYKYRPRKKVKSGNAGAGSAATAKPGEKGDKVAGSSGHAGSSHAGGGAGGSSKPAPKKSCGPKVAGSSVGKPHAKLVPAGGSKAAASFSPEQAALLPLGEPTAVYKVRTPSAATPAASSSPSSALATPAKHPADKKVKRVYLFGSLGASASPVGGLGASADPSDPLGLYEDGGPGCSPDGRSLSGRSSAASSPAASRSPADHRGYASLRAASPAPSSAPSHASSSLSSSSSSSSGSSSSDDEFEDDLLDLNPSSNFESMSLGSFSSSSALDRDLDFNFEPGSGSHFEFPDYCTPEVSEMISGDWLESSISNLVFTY

B1: Cyp2e1 distal enhancer WT (HNF4A motif) (dsDNA)
DNA 1: ATCTCTGGGACAAAGTATAGAGAAG
DNA 2: CTTCTCTATACTTTGTCCCAGAGAT
binds: FLAG-SOX4 [1] | MYC-FLAG-HNF4A | FLAG-SOX4 [2]
